Source: article PMC5336481 (Nature structural & molecular biology, 2017)
Blank lines part the entries; values can stand above or below the molecule they belong to.

Assays:
[1] = biological target: full-length C. elegans TRPML1 (CUP-5), WT (C. elegans); assay: cryo-EM structure
[2] = biological target: the molecule itself; assay: crystal structure
[3] = biological target: T1, human TRPML1 protein (SDS-PAGE, data not shown) (human), Q9GZU1; assay: reducing SDS-PAGE; settings: remark: other sources report otherwise
T1 chain: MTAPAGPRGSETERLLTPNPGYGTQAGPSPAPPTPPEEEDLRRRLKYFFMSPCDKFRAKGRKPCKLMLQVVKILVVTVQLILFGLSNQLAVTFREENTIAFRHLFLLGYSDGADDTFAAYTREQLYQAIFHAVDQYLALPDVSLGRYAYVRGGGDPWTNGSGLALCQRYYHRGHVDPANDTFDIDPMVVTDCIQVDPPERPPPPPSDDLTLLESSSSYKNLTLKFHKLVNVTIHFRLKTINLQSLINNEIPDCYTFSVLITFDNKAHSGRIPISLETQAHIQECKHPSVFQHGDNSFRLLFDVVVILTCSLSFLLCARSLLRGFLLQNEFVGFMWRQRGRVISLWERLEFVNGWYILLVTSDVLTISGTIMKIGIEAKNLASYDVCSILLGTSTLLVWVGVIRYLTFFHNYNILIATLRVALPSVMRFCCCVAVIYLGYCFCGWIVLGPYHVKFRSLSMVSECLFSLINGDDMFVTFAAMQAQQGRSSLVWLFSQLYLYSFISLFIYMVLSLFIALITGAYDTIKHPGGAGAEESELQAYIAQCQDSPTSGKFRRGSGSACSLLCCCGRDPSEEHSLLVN

stoichiometry N [1]: 4
Molecule: full-length C. elegans TRPML1 (CUP-5), WT (natural protein)

B1: human TRPML1 I-II linker (G84-S296) (domain or fragment, UniProt Q9GZU1 84-296, looked up)
chain: GLSNQLAVTFREENTIAFRHLFLLGYSDGADDTFAAYTREQLYQAIFHAVDQYLALPDVSLGRYAYVRGGGDPWTNGSGLALCQRYYHRGHVDPANDTFDIDPMVVTDCIQVDPPERPPPPPSDDLTLLESSSSYKNLTLKFHKLVNVTIHFRLKTINLQSLINNEIPDCYTFSVLITFDNKAHSGRIPISLETQAHIQECKHPSVFQHGDNS
stoichiometry N [2]: 4

stoichiometry N [3]: 4
B2: human TRPML1 protein (SDS-PAGE, data not shown), Q9GZU1 1-580 (natural protein)
chain: MTAPAGPRGSETERLLTPNPGYGTQAGPSPAPPTPPEEEDLRRRLKYFFMSPCDKFRAKGRKPCKLMLQVVKILVVTVQLILFGLSNQLAVTFREENTIAFRHLFLLGYSDGADDTFAAYTREQLYQAIFHAVDQYLALPDVSLGRYAYVRGGGDPWTNGSGLALCQRYYHRGHVDPANDTFDIDPMVVTDCIQVDPPERPPPPPSDDLTLLESSSSYKNLTLKFHKLVNVTIHFRLKTINLQSLINNEIPDCYTFSVLITFDNKAHSGRIPISLETQAHIQECKHPSVFQHGDNSFRLLFDVVVILTCSLSFLLCARSLLRGFLLQNEFVGFMWRQRGRVISLWERLEFVNGWYILLVTSDVLTISGTIMKIGIEAKNLASYDVCSILLGTSTLLVWVGVIRYLTFFHNYNILIATLRVALPSVMRFCCCVAVIYLGYCFCGWIVLGPYHVKFRSLSMVSECLFSLINGDDMFVTFAAMQAQQGRSSLVWLFSQLYLYSFISLFIYMVLSLFIALITGAYDTIKHPGGAGAEESELQAYIAQCQDSPTSGKFRRGSGSACSLLCCCGRDPSEEHSLLVN
